Where two headings read alike, the source gives them in different places.

Consider 16 molecules from patent US20210102192A1 (TWIST BIOSCIENCE, published 2021).

Assay [1] deals with T1, Prostaglandin D2 receptor 2 (CRTH2R) (UniProt Q9Y5Y4 1-395).
T1 chain: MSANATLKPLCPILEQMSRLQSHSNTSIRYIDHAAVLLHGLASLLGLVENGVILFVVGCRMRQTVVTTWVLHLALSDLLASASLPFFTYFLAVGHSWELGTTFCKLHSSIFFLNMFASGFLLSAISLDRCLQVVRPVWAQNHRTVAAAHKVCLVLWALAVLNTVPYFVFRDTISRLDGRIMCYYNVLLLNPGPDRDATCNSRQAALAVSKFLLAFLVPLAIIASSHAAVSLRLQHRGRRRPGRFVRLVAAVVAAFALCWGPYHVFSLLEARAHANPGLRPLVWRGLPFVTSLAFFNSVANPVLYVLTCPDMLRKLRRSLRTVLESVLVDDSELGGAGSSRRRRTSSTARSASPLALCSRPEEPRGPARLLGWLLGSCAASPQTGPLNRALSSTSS
The assay is described as follows: FACS binding; CHO CRTH2R-positive cells. Background: A flow cytometer gives signals particle by particle.

Assay [2] addresses T2, Prostaglandin D2 receptor 2 (CRTH2R) (human, UniProt Q9Y5Y4 1-395).
T2 sequence: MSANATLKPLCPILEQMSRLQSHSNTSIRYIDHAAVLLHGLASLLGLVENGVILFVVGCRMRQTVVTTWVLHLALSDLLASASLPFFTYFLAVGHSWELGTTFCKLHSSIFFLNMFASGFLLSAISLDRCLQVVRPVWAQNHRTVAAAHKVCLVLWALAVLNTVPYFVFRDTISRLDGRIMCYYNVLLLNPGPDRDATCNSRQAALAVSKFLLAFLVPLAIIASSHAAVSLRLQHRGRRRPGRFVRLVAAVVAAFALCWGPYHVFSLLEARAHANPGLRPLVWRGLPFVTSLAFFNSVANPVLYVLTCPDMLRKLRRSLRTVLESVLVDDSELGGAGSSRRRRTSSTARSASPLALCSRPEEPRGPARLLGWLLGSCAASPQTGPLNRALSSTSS
The assay is described as follows: cell-based or functional assay.

Assay [3] concerns the target T1, Prostaglandin D2 receptor 2 (CRTH2R). The assay is described as follows: FACS binding; CHO CRTH2R-positive cells.
Assay [4] has the same target. Kind of assay: FACS binding; CHO CRTH2R-positive cells.
For assay [5] the target is unchanged. Kind of assay: FACS binding; CHO CRTH2R-positive cells.

B1: CRTH2 57 (antibody, V domains shown)
VH: QVQLVQSGAEVKKPGSSVKVSCKASGGTFSSYAMSWVRQAPGQGLEWMGGIIPLFGTTDYAQKFQGRVTITADESTSTAYMELSSLRSEDTAVYYCARANQHFVKIQGAPVSTPVPGFGTTGYHYYGMDVWGQGTLVTVSS
VL: QSVLTQPPSVSAAPGQKVTISCSGSSSNIEDNYVSWYQQLPGTAPKLLIYDNFKRPSGIPDRFSGSKSGTSATLGITGLQTGDEADYYCGTWDTSLSAALFGGGTKLTVL
B1 came in with an EC50 in assay [1] of 158 nM. That is a sub-micromolar value.

B2: CRTH2-15 (antibody, V domains shown)
VH: QVQLVQSGAEVKKPGSSVKVSCKASGGTFSTYAIDWVRQAPGQGLEWMGGIIPLFGSPNYAQKFQGRVTITADESTSTAYMELSSLRSEDTAVYYCARANQHFFLYEGTSSSWLHVGHARYGYHYYGMDVWGQGTLVTVSS
VL: QSVLTQPPSVSAAPGQKVTISCSGSGSNIGSNYVSWYQQLPGTAPKLLIYDNIRRPSGIPDRFSGSKSGTSATLGITGLQTGDEADYYCAAWDTRLSAGVFGGGTKLTVL
In the case of B2, in assay [2], the “antagonist activity in PGD2-induced cAMP assay at 33 nM IgG” value (from here on “antagonist activity”) was > 20%. This molecule also returned an EC50 in assay [3] of 73.8 nM.

B3: CRTH2-8 (antibody, V domains shown)
VH: QVQLVQSGAEVKKPGSSVKVSCKASGGTFTDYAISWVRQAPGQGLEWMGGIIPFFGSPNYAQKFQGRVTITADESTSTAYMELSSLRSEDTAVYYCARDMYYDFAAGLEGTITEVFDEEGHQGGTEVVPADDAFDIWGQGTLVTVSS
VL: QSVLTQPPSVSAAPGQKVTISCSGSSSNIGKNYVSWYQQLPGTAPKLLIYDNNQRPSGIPDRFSGSKSGTSATLGITGLQTGDEADYYCGTWDTSLTSVVFGGGTKLTVL
On to B3, for which, in assay [2], the “antagonist activity” value is > 20%.

B4: CRTH2 66 (antibody)
chain 1: QVQLVESGGGVVQPGRSLRLSCAASGFDFSGYGMHWVRQAPGKGLEWVAVISYEGSNKFYADSVKGRFTISRDNSKNTLYLQMNSLRAEDTAVYYCARDLRELECEEWTIEVHGQEFAVHQDRGGVFSRGPCVDPRGVAGSFDVWGQGTLVTVSS
chain 2: EIVMTQSPATLSVSPGERATLSCRASQGVGSNLAWYQQKPGQAPRLLIYRTSIRATGIPARFSGSGSGTEFTLTISSLQSEDFAVYYCQQYYSWPPLTFGGGTKVEIK
B4: the concentration for a half-maximal effect (EC50) in assay [1] amounted to 3.95 nM.

B5: CRTH2-19 (antibody, V domains shown)
VH: QVQLVQSGAEVKKPGSSVKVSCKASGGTFSSHAINWVRQAPGQGLEWMGRIIPIVGTTTYAQKFQGRVTITADESTSTAYMELSSLRSEDTAVYYCARDMYYDFDYFGLTLTGDRNDDEVVPADDAFDIWGQGTLVTVSS
VL: QSALTQPASVSGSPGQSITISCTGTSSDVGGYDYVTWYQQHPGKAPKLMIYDVDTRPSGVSNRFSGSKSGNTASLTISGLQAEDEADYYCSSYTTSTSYVFGGGTKLTVL
Consider B5, for which the “antagonist activity” value in assay [2] is > 20%. This molecule came in with an EC50 in assay [4] of 16.7 nM.

B6: CRTH2-70 (antibody, V domains shown)
VH: QVQLVQSGAEVKKPGSSVKVSCKASGGTFSNHAIIWVRQAPGQGLEWMGGIIPIFGTPSYAQKFQGRVTITADESTSTAYMELSSLRSEDTAVYYCARDMYYDFDVISAGVVGAGNPEVVPADDAFDIWGQGTLVTVSS
VL: QSVLTQPPSVSAAPGQKVTISCSGSTSNIGNNFVSWYQQLPGTAPKLLIYDNEKRPSGIPDRFSGSKSGTSATLGITGLQTGDEADYYCGTWDERQTDESYVFGGGTKLTVL
As to B6, in assay [2], the “antagonist activity” value was > 20%.

B7: CRTH2 35 (antibody, V domains shown)
VH: QVQLVQSGAEVKKPGSSVKVSCKASGGTFRSYAISWVRQAPGQGLEWMGGIIPISGTTNYAQKFQGRVTITADESTSTAYMELSSLRSEDTAVYYCARANQHFTRIFGNYQIYFGHFGYHYYGMDVWGQGTLVTVSS
VL: QSALTQPASVSGSPGQSITISCTGTSSDIGGYEFVSWYQQHPGKAPKLMIYGVSRRPSGVSNRFSGSKSGNTASLTISGLQAEDEADYYCGSYTSSSTPYVFGGGTKLTVL
For B7, the 50% effective concentration (EC50) in assay [5] is 12.6 nM.

B8: CRTH2-27 (antibody, V domains shown)
VH: QVQLVESGGGVVQPGRSLRLSCAASGFTFDNYGMHWVRQAPGKGLEWVAVISYEGSNKKYADSVKGRFTISRDNSKNTLYLQMNSLRAEDTAVYYCARDMYYDFGSIYGEDVVGELPEVVPADDAFDIWGQGTLVTVSS
VL: QSALTQPASVSGSPGQSITISCTGTSNDVGAYNFVSWYQQHPGKAPKLMIYDISNRPSGVSNRFSGSKSGNTASLTISGLQAEDEADYYCSSYTRSNTRVFGGGTKLTVL
For B8, the “IC50 fold difference of the PGD2 dose response curve (cAMP assay, 100 nM IgG)” value (“IC50 fold difference” below) in assay [2] is > 2 fold.

B9: CRTH2-74 (antibody)
VH: QVQLVESGGGVVQPGRSLRLSCAASGFSFSEYGIHWVRQAPGKGLEWVAVISYEGSNEYYADSVKGRFTISRDNSKNTLYLQMNSLRAEDTAVYYCARANQHFGPVAGGATPSEEPGSQLTRAELGWDAPPGQESLADELLQLGTEHGYHYYGMDVWGQGTLVTVSS
VL: QSVLTQPPSVSAAPGQKVTISCSGSTSNIGKNYVSWYQQLPGTAPKLLIYDDDERPSGIPDRFSGSMSGTSATLGITGLQTGDEADYYCEAWDADLSGAVFGGGTKLTVL
Turning to B9, the “antagonist activity” value in assay [2] was > 20%. In assay [4], this molecule came in with an EC50 of 8.61 nM.

B10: CRTH2-9 (antibody, V domains shown)
VH: QVQLVQSGAEVKKPGSSVKVSCKASGGTFSSYAISWVRQAPGQGLEWMGGIIPIFGTANYAQKFQGRVTITADESTSTAYMELSSLRSEDTAVYYCARDMYYDFWLGDQSTGSLIGAEVVPADDAFDIWGQGTLVTVSS
VL: QSVLTQPPSVSAAPGQKVTISCSGSTSNIGNNYVSWYQQLPGTAPKLLIYENDERPSGIPDRFSGSKSGTSATLGITGLQTGDEADYYCATWDTRLSAVVFGGGTKLTVL
On to B10, for which, in assay [2], the “IC50 fold difference” value was > 2 fold and the “antagonist activity” value was > 20%.

B11: CRTH2-28 (antibody, V domains shown)
VH: QVQLVQSGAEVKKPGSSVNVSCKASGGTFSDYAFSWVRQAPGQGLEWMGAIIPFFGTVNYAQKFQGRVTITADESTSTAYMELSSLRSEDTAVYYCARDMYYDFATGTGGPEDDLYPQGELNDGYRIEVVPADDAFDIWGQGTLVTVSS
VL: QSVLTQPPSVSAAPGQKVTISCSGSISNIGKNYVSWYQQLPGTAPKLLIYDDHKRPSGIPDRFSGSKSGTSATLGITGLQTGDEADYYCATWDRGLSAAVFGGGTKLTVL
As for B11, the “antagonist activity” value in assay [2] is > 20%.

B12: CRTH2-32 (antibody, V domains shown)
VH: QVQLVESGGGVVQPGRSLRLSCAASGFTFSKHGMHWVRQAPGKGLEWVAFISYEGSEKYYADSVKGRFTISRDNSKNTLYLQMNSLRAEDTAVYYCARDMYYDFHYSTVGATYYYYLGSETEVVPADDAFDIWGQGTLVTVSS
VL: QSALTQPASVSGSPGQSITISCTGTSSGVGGYDYVSWYQQHPGKAPKLMIYDDNNRPSGVSNRFSGSKSGNTASLTISGLQAEDEADYYCSSYTGSSTLYVFGGGTKLTVL
On to B12, for which the “IC50 fold difference” value in assay [2] was > 2 fold. In addition, the concentration for a half-maximal effect (EC50) in assay [5] was 12.4 nM.

B13: CRTH2-42 (antibody)
VH: QVQLVESGGGVVQPGRSLRLSCAASGFAFSSYAMHWVRQAPGKGLEWVAVISYEGSNEYYADSVKGRFTISRDNSKNTLYLQMNSLRAEDTAVYYCARDLRELECEEWTVLQYGKFHMRWAESGEGSLSRGPCVDPRGVAGSFDVWGQGTLVTVSS
VL: QSALTQPASVSGSPGQSITISCTGTSSDVGGYRYVSWYQQHPGKAPKLMIYNVNYRPSGVSNRFSGSKSGNTASLTISGLQAEDEADYYCSSYRSSSTLGVFGGGTKLTVL
Regarding B13, in assay [2], the “IC50 fold difference” value was > 2 fold and the “antagonist activity” value was > 20%.

B14: CRTH2-24 (antibody, V domains shown)
VH: QVQLVQSGAEVKKPGSSVKVSCKASGGSFSNYGISWVRQAPGQGLEWMGGIIPLIGTANYAQKFQGRVTITADESTSTAYMELSSLRSEDTAVYYCARDMYYDFTLGPQSIGPLGEVVPADDAFDIWGQGTLVTVSS
VL: QSVLTQPPSVSAAPGQKVTISCSGSSSNIGNNFVSWYQQLPGTAPKLLIYDNIQRPSGIPDRFSGSKSGTSATLGITGLQTGDEADYYCGTWDTSLSAVVFGGGTKLTVLR
For B14, the “antagonist activity” value in assay [2] is > 20%.

B15: CRTH2-45 (antibody)
VH: QVQLVESGGGVVQPGRSLRLSCAASGFTFSHYAMHWVRQAPGKGLEWVADISHEGSNKYYADSVKGRFTISRDNSKNTLYLQMNSLRAEDTAVYYCARDGRGSLPRPKGGPTSGGGFSTNIGYGFVVQSYDSSEDSGGAFDIWGQGTLVTVSS
VL: QSVLTQPPSVSAAPGQKVTISCSGTSSNIENNYVSWYQQLPGTAPKLLIYDNVKRPSGIPDRFSGSKSGTSATLGITGLQTGDEADYYCGTWDNTVSAPWVFGGGTKLTVL
Regarding B15, the “antagonist activity” value in assay [2] is > 20%. In assay [5], this molecule yielded a half-maximal effective concentration (EC50) of 23.2 nM.

B16: CRTH2-60 (antibody, V domains shown)
VH: QVQLVQSGAEVKKPGSSVKVSCKASGGTFKNYAINWVRQAPGQGLEWMGAIIPKFGAANYAQKFQGRVTITADESTSTAYMELSSLRSEDTAVYYCARANQHFSAVRGLAFGYGYRIGGYHYYGMDVWGQGTLVTVSS
VL: QSVLTQPPSVSAAPGQKVTISCSGSTSNIGINYVSWYQQLPGTAPKLLIYENRKRPSGIPDRFSGSKSGTSATLGITGLQTGDEADYYCATWDASLKNLVFGGGTKLTVL
As for B16, the “antagonist activity” value in assay [2] was > 20%.

The term EC50 denotes the midpoint of the concentration-response curve. Read a low EC50 as greater potency.
